Here are results for one molecule from publication PMC6824560, “Insight into the relationship between aryl-hydrocarbon receptor and β-catenin in human colon cancer cells” (PLoS ONE, 2019).

This assay has as its target T1, human Arnt fused to Gal4 DNA-binding domain in pGBKT7 (human, UniProt P27540 1-789).
T1 construct: Arnt, human cDNA; This fusion alone induces the reporter; also called pGBK-Arnt; source: yeast two-hybrid fusion, yeast strain Y187
In words: two-hybrid; yeast two-hybrid in strain Y187, pGADT7 and pGBKT7 fusions, 1 μM 3MC or 0.1% DMSO for 12 h at 30°C, β-galactosidase read-out (o-nitrophenol-β-D-galactopyranoside); DDB1 or CUL4B co-expressed from pESC in some samples. To be noted: partners not purified.

T1 sequence (P27540 whole entry, the tested form may be a part): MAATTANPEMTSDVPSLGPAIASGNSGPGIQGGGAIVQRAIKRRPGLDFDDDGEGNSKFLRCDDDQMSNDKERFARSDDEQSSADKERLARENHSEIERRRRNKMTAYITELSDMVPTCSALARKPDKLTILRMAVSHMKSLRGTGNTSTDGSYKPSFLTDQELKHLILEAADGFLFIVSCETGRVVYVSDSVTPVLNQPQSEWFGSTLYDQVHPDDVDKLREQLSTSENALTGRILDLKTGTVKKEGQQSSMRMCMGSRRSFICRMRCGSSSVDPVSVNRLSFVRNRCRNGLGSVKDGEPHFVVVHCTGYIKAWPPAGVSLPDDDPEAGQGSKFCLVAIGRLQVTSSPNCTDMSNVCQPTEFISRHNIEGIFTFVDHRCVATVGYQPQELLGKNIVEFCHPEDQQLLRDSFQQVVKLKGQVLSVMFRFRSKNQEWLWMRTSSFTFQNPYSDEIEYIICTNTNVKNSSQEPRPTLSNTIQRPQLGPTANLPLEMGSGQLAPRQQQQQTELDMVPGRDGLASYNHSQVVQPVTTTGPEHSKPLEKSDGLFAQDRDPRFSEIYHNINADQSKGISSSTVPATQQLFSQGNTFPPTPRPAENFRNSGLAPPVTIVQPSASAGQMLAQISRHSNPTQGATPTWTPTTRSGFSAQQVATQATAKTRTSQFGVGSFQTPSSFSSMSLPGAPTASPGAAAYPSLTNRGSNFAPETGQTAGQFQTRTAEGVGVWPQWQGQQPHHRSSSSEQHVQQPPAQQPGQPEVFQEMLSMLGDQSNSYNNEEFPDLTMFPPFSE

B1: human AhR fused to Gal4 activating domain in pGADT7 (natural protein, UniProt P35869 1-848, looked up)
chain: MNSSSANITYASRKRRKPVQKTVKPIPAEGIKSNPSKRHRDRLNTELDRLASLLPFPQDVINKLDKLSVLRLSVSYLRAKSFFDVALKSSPTERNGGQDNCRAANFREGLNLQEGEFLLQALNGFVLVVTTDALVFYASSTIQDYLGFQQSDVIHQSVYELIHTEDRAEFQRQLHWALNPSQCTESGQGIEEATGLPQTVVCYNPDQIPPENSPLMERCFICRLRCLLDNSSGFLAMNFQGKLKYLHGQKKKGKDGSILPPQLALFAIATPLQPPSILEIRTKNFIFRTKHKLDFTPIGCDAKGRIVLGYTEAELCTRGSGYQFIHAADMLYCAESHIRMIKTGESGMIVFRLLTKNNRWTWVQSNARLLYKNGRPDYIIVTQRPLTDEEGTEHLRKRNTKLPFMFTTGEAVLYEATNPFPAIMDPLPLRTKNGTSGKDSATTSTLSKDSLNPSSLLAAMMQQDESIYLYPASSTSSTAPFENNFFNESMNECRNWQDNTAPMGNDTILKHEQIDQPQDVNSFAGGHPGLFQDSKNSDLYSIMKNLGIDFEDIRHMQNEKFFRNDFSGEVDFRDIDLTDEILTYVQDSLSKSPFIPSDYQQQQSLALNSSCMVQEHLHLEQQQQHHQKQVVVEPQQQLCQKMKHMQVNGMFENWNSNQFVPFNCPQQDPQQYNVFTDLHGISQEFPYKSEMDSMPYTQNFISCNQPVLPQHSKCTELDYPMGSFEPSPYPTTSSLEDFVTCLQLPENQKHGLNPQSAIITPQTCYAGAVSMYQCQPEPQHTHVGQMQYNPVLPGQQAFLNKFQNGVLNETYPAELNNINNTQTTTHLQPLHHPSEARPFPDLTSSGFL
notes: aryl-hydrocarbon receptor (AhR), human cDNA; also called pGAD-AhR; aryl-hydrocarbon receptor; source: yeast two-hybrid fusion, yeast strain Y187
Take B1: the “fold increase of two-hybrid reporter activity over pGBK-Arnt alone” value was approximately 3 fold.
